Values of other authors in patent US6368617B1, “Dietary supplement” (Reliv' International, Inc., priority 2001, dated 2002).
Like-named read-outs stand apart in the source and are kept apart here.

Growth Hormone: endocrine hormone produced by the pituitary, also known as somatotropin
half-life (circulating): about 20 minutes

IGF-1: growth-promoting metabolite of hGH, somatomedin C, commercially known as Insulin-like Growth Factor type 1
half-life (serum): about 20 hours
